The text below walks through data of PMC12686569, “FaMYB63 and FvWYRKY75 Activate FvPR10.14 Boosting Strawberry Immunity Against Powdery Mildew”.

This data set concerns the target FvWRKY75 (Fragaria vesca, UniProt A0A1S5SLB0 1-190). As to the kind of experiment: EMSA; EMSA Kit (Beyotime), according to Wang, Shi, et al. 2022; buffer, salt, pH and temperature not stated. Conditions: protein: recombinant; tags: His (as stated); blunt. A general note: A gel shift assay detects complexes by their altered migration in electrophoresis.

FvWRKY75, sequence (A0A1S5SLB0 entry or part of it): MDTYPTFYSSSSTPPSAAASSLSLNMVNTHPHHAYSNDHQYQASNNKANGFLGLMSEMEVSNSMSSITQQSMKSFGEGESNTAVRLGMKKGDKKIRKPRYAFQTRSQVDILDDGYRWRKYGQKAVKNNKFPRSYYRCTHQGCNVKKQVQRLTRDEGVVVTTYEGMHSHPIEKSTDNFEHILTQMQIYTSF

B1: FvPR10.14-P (FvWRKY75 probe) (dsDNA)
DNA 1: ATATATGGGATAGCCAATGTTGACTGCTCGACATTACGTGTATA
DNA 2: TATACACGTAATGTCGAGCAGTCAACATTGGCTATCCCATATAT
B1: the binding result was “binds”.
